Measured values as given in article PMC7195432, “MD2 activation by direct AGE interaction drives inflammatory diabetic cardiomyopathy” (Nature Communications, 2020).

Target: T1, glucose-derived AGE-modified bovine serum albumin (AGE-BSA) (bovine, UniProt P02769 25-607, advanced glycation end product (AGE) modification, glucose-derived, glycolaldehyde-mediated; the modified residues are not stated)
T1 construct: bovine serum albumin, chemically AGE-modified; A heterogeneous glycated preparation; also called AGE-modified BSA; glucose-derived, glycolaldehyde-mediated AGE-BSA; source: bought: BioVision Incorporated (Cat # 2223), purity >98%
T1 sequence (P02769 25-607): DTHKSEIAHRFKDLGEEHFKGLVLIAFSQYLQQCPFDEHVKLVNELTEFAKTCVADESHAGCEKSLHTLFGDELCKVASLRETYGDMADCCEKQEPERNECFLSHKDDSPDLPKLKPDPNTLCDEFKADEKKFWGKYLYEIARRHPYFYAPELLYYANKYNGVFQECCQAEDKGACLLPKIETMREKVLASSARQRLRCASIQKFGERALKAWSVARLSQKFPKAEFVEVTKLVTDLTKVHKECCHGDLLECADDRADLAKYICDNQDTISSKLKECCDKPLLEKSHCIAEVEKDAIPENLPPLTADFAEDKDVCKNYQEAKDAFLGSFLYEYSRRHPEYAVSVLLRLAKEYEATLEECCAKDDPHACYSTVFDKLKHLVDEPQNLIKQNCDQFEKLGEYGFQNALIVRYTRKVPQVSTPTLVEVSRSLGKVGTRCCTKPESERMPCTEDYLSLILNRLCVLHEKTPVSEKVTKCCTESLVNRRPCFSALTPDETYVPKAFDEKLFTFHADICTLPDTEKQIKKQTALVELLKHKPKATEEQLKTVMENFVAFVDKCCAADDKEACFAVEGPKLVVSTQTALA
Assay: ITC; Nano-ITC, 25 °C, proteins in ddH2O; AGE-BSA (1 μM) in the cell, MD2 protein solution (5 μM) in the syringe, 20 injections of 2.5 μL; independent model
Settings: both partners purified

Kd: 81 µM
B1: recombinant human MD2 (rhMD2) (natural protein, UniProt Q9Y6Y9 19-160, looked up)
chain: QKQYWVCNSSDASISYTYCDKMQYPISINVNPCIELKRSKGLLHIFYIPRRDLKQLYFNLYITVNTMNLPKRKEVICRGSDDDYSFCRALKGETVNTTISFSFKGIKFSKGKYKCVVEAISGSPEEMLFCLEFVILHQPNSN
notes: MD2 (myeloid differentiation 2), human, recombinant; also called human recombinant MD2 protein; source: bought: R&D Systems
